Reference: paper PMC4414246

Columns and labels:
Assay in all cases: fluorescence polarization
U1A M51A = U1A M51A (UniProt P09012 10-89, M51A)
dK50dM51 N16A = dK50dM51 N16A (UniProt P09012 10-89, N16A;del50-51)
U1A M51A:Y13Q = U1A M51A:Y13Q (UniProt P09012 10-89, Y13Q;M51A)
U1A E19F:Y13Q = U1A E19F:Y13Q (UniProt P09012 10-89, Y13Q;E19F)
U1A E19S:N15V = U1A E19S:N15V (UniProt P09012 10-89, N15V;E19S)
dK50dM51 E19A = dK50dM51 E19A (UniProt P09012 10-89, E19A;del50-51)
U1A M51N = U1A M51N (UniProt P09012 10-89, M51N)
U1A L49F = U1A L49F (UniProt P09012 10-89, L49F)
dK50dM51 E19N = dK50dM51 E19N (UniProt P09012 10-89, E19N;del50-51)
U1A E19A:Y13Q = U1A E19A:Y13Q (UniProt P09012 10-89, Y13Q;E19A)
U1A = U1A (UniProt P09012 10-89)
dK50dM51 E19F = dK50dM51 E19F (UniProt P09012 10-89, E19F;del50-51)
U1A M51K = U1A M51K (UniProt P09012 10-89, M51K)
U1A E19S:F56A = U1A E19S:F56A (UniProt P09012 10-89, E19S;F56A)
U1A L49A:E19A = U1A L49A:E19A (UniProt P09012 10-89, E19A;L49A)
U1A L49S = U1A L49S (UniProt P09012 10-89, L49S)
dK50dM51 = dK50dM51 (UniProt P09012 10-89, del50-51)
dK50dM51 S48A = dK50dM51 S48A (UniProt P09012 10-89, S48A;del50-51)
U1A S48A = U1A S48A (UniProt P09012 10-89, S48A)
U1A E19K = U1A E19K (UniProt P09012 10-89, E19K)
U1A L49N = U1A L49N (UniProt P09012 10-89, L49N)
U1A M51A:F56A = U1A M51A:F56A (UniProt P09012 10-89, M51A;F56A)
U1A E19F:N15V = U1A E19F:N15V (UniProt P09012 10-89, N15V;E19F)
U1A E19S = U1A E19S (UniProt P09012 10-89, E19S)

Binder: GGCAGAUCUGAGCCUGGGAGCUCUCUGCC (structured_RNA) [TAR RNA]
- Kd (U1A M51A): 4.9 ± 0.6 µM
- Kd (dK50dM51 N16A): 62.1 ± 5.4 µM
- Kd (U1A M51A:Y13Q): 210 ± 84.3 µM
- Kd (U1A E19F:Y13Q): 58 ± 24.1 µM
- Kd (U1A E19S:N15V): 11.3 ± 0.8 µM
- Kd (dK50dM51 E19A): 10.2 ± 2.2 µM
- Kd (U1A M51N): 13.8 ± 1.6 µM
- Kd (U1A L49F): 24.1 ± 4.3 µM
- Kd (dK50dM51 E19N): 27.8 ± 3.2 µM
- Kd (U1A E19A:Y13Q): 21.7 ± 5.3 µM
- Kd (U1A): 19.1 ± 4.9 µM
- Kd (dK50dM51 E19F): 12.6 ± 1.8 µM
- Kd (U1A M51K): 7.7 ± 0.5 µM
- Kd (U1A E19S:F56A): 19.2 ± 1.4 µM
- Kd (U1A L49A:E19A): 6.9 ± 0.8 µM
- Kd (U1A L49S): 12.4 ± 2.3 µM
- Kd (dK50dM51): 15.9 ± 2.3 µM
- Kd (dK50dM51 S48A): 33.9 ± 15.9 µM
- Kd (U1A S48A): 14.2 ± 1.3 µM
- Kd (U1A E19K): 5.9 ± 0.4 µM
- Kd (U1A L49N): 14.4 ± 2.1 µM
- Kd (U1A M51A:F56A): 177 ± 98.2 µM
- Kd (U1A E19F:N15V): 19 ± 2.5 µM
- Kd (U1A E19S): 4.1 ± 0.3 µM
